The target in the data set is T1, His-PhoP (Salmonella enterica serovar Typhimurium (strain SL1344?)) (UniProt E1WFA1).
T1 sequence: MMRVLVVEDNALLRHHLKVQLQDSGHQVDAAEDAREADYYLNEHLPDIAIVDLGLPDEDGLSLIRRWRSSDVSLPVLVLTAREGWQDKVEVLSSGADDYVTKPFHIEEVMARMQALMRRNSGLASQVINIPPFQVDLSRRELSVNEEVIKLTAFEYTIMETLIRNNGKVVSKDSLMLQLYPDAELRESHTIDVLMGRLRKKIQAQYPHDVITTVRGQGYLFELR
The data set is described as follows: EMSA. The settings on record: 20 mM HEPES pH 7.6, 1 mM EDTA, 10 mM (NH4)2SO4, 5 mM DTT, 0.2% Tween 20, 30 mM KCl, 0.1 ug poly-L-lysine, 1 ug poly(dI-dC), 50 mM acetyl phosphate, 37 C …. On the technique in general: Mobility shift assays separate free from complexed probe on a gel.

The text below walks through data of paper PMC3098285.

“CGCTCACCTCTTCTGTATATAAGCTGTGAAATTGCGGTATGCTCAATCGGTAAAGTGAATTTACACATATATTCATTTTGCTCTGTTTCCTGGTAAGTGAAAGTAGCGAATATGATGTAATGTATAATT (double strand) [sseL promoter 128-bp fragment]”: the binding entry is given as “binds”.
